In US8673270B2, “RGD-containing peptidomimetics and uses thereof” (priority 2008, dated 2014):
Like-named read-outs stand apart in the source and are kept apart here.

Key:
Toxicity study on rats = format: in vivo; settings: 50 mg/kg into tail vein; for Necrosis or inflammation in liver or kidneys: after five days
Protocol: The various conjugates at dose of 50 mg/kg were injected into the tail vein during 1-2 min.

[1] = system: MLS human ovarian carcinoma cells; design: species or system CD-1 nude mice; settings: mouse, in vivo
Text: (ix) In-vivo ovarian carcinoma model. Female CD-1 nude mice (7-9 weeks old, 23-28 gr) were anaesthetized and subcutaneously (SC) implanted with MLS human ovarian carcinoma cells (obtained from Prof. M. Neeman, the Weizmann Institute of Science, Israel) suspension (2-3×10^6 cells/mouse). Tumors reached treatment size, diameter 6-8 mm, within 2-3 weeks.
Animals were anaesthetized by gas with mixture of 7:3 N2O:O2 containing 2% isofluorane (Medeva, Bethlehem, Pa.) or by intraperitoneal (IP) injection with mixture of 5 mg/kg ketamine (Rhone Merieux, Lyon, France) and 1 mg/kg pompun (Bayer, Leverkusen, Germany) (85:15, v:v).
(xiii) Fluorescent imaging protocol for BTA-RGD conjugates. Test compounds (8 mg/kg) were injected into the tail vein of IP anaesthetized tumor-bearing mice. Images of gas-anaesthetized animals were taken at 6, 8, 10, 12, 14 and 24 hrs (in some cases also at 48 and 72 hrs) after injection using IVIS® 100 Series Imaging System. The excitation and emission filters were set in the IVIS to 710-760 nm and to 810-860 nm, respectively. The emission filter with wavelength closest to the emission peak of the compound was selected among available filters in the standard configuration of IVIS.
(xiv) Fluorescent imaging protocol for FITC-RGD conjugates. Test compounds (8 mg/kg) were injected into the tail vein of IP anaesthetized tumor-bearing mice. Images of gas-anaesthetized animals were taken at 6 and 8 hrs after injection. Animals were sacrificed at 8 hrs, the organs (tumor, kidney, liver) were excited and images of the organs were taken using IVIS® 100 Series Imaging System. The excitation and emission filters were set in the IVIS to 445-490 nm and to 515-575 nm, respectively. The emission filter with wavelength closest to the emission peak of FITC was selected among available filters in the standard configuration of IVIS.

[2] = system: MLS human ovarian carcinoma cells; experiment: Integrin binding assay (in vitro), fluorescence imaging of cells incubated with conjugate; format: cell-based; settings: 100 μM/well, 3 hrs at 37° C., IVIS imaging
Protocol: (xv) In-vitro binding assay. MLS human ovarian carcinoma cells were cultured as monolayers in minimum essential medium (MEM-alpha) containing 1 g/l D-glucose, pH 7.4, 10% fetal calf serum (FCS), glutamine (2 mM), penicillin (0.06 mg/ml) and streptomycin (0.1 mg/ml), and were grown at 37° C. in 5% CO2-humidified atmosphere. At 48 hrs before experiment, cells were seeded at 6 well plates (3×10^5 cells/well).
Expression of αvβ3 integrin on MLS cells. The cells were grown on cover slips. Following overnight serum starvation, fixation with 4% paraformaldehyde (Sigma, Israel) and permeabilization with 0.2% Triton X-100 (Sigma, Israel), cells were incubated in blocking solution (10% of horse serum) (Biological Industries, Israel) for 1 hr at RT. Cells were then incubated with mouse anti-human αvβ3 integrin antibodies (1:100) (Chemicon, Biotest, Israel) for 1 hr at RT. Secondary rabbit FITC-labeled anti-mouse IgG (1:200) (Sigma, Israel) were applied to cells for 1 hr at RT. Imaging was performed by fluorescent microscope (Nikon Optiphot2, Japan) equipped with a digital camera (DVC Company, Inc., Austin, Tex.).
In vitro binding assay. RGD-conjugates were initially dissolved in DMSO to yields 4×10^−3 M. The stock solutions were then diluted 1:40 in culture medium and added into MILS or HT29 cells (100 μM/well). Cells were incubated at 37° C. in 5% CO2-humidified atmosphere for 3 hrs. Cells were then washed 3 times with PBS and images were performed on a Xenogen IVIS® 100 Series Imaging System. The excitation and emission filters set in the IVIS for BTA-RGD were 710-760 nm and 810-860 nm, respectively, and for FITC-RGD were 445-490 nm and 515-575 nm, respectively.

[3] = system: MDA-MB-231-RFP human breast cancer cells; experiment: In-vivo breast cancer model, orthotopic large necrotic tumor, IVIS imaging; design: species or system CD-1 nude mice; settings: six days post injection, necrotic tumors 1-1.5 cm^3
Protocol: (xii) In-vivo breast cancer model. Female CD-1 nude mice (6-8 weeks old, 20-25 g, obtained from Harlan Biotech Israel, Rehovot, Israel) were implanted with MDA-MB-23′-RFP human breast cancer cells (4×10^6 cells/mouse). […] When tumors reached the size of 1-1.5 cm^3 for necrotic tumors, mice were anaesthetized by IP injection of 30 μl mixture of 85:15 ketamine:xylazine, and the test conjugate (15 mg/kg) was then injected to the tail vein.
In this study, the specific accumulation pattern of conjugates 1, 4 and 41 in orthotopic primary lesions of mammary carcinoma model, monitored by fluorescence signal generated by the tumor, and the fluorescence signal generated by these conjugates were examined. The localization of the conjugates in the tumors as time progress was also determined. Animals were treated as described in Materials and Methods, and fluorscence of both tumor cells and conjugates 1, 4 and 41 was monitored by IVIS® 100 imaging system from day 1 to 7.
FIGS. 1A, 1B and 1C show the accumulation patterns of conjugates 1, 4 and 41, respectively, in orthotopic human breast MDA-MB-231-RFP primary large tumor in the mammary pad of CD-1 nude female mice, using the Xenogen IVIS® System. Whole animal images° were recorded concomitantly using filter sets comprising excitation filter 500-550 nm and emission filter 575-650 nm. Background filter set for subtraction the tissue auto fluorescence: excitation filter 460-490 nm and emission filter 575-650 nm. Photosensitizer imaging main filter set: excitation filter 665-695 nm, emission filter 810-875 nm.

human αvβ3 integrin = biological target: T1, human αvβ3 integrin (Homo sapiens, UniProt P05106+P06756); experiment: Competitive binding experiments (determination of IC50) against c[RGDfK]-biotin, ELISA; settings: competition with c[RGDfK]-biotin (10^−3M), coated integrin
T1 construct: purchased Chemicon
Protocol: (viii) Integrin binding test by ELISA. Nunc immuno-module strips (Nunclon, Cat#167008, Daniel Biotech, Israel) were coated for overnight with 2 μg/ml human integrin αvβ3 (Chemicon, Cat#CC1020, Biotest, Israel) dissolved in 0.06 M carbonate-bicarbonate buffer. Strips were blocked for 2 hrs at RT with 2% bovine serum albumin (BSA) (Sigma, Cat#A-9647, Israel) in phosphate buffered saline (PBS) (Biological Industries, Israel). A mixture of c[RGDfK]-biotin (10^−3M) and a test compound at different concentrations (10^−2, 10^−3, 10^−4 and 10^−5M) diluted in assay buffer (50 mM Tris HCl, pH=7.7, 0.5% BSA, 0.15 M NaCl, 0.01% Tween 20) was added to the coated strips and was incubated overnight at RT with shaking. After washing with PBS, anti-biotin antibodies labeled by alkaline phosphatase (1:200) (Miltenyi Biotec, Almog, Israel) were added and incubated for 1 hr at RT. The samples were incubated with p-nitrophenyl phosphate substrate (p-NPP, Calbiochem, Mercury, Israel) and read at 405 nm.
(xvi) Competitive binding experiments (determination of IC50). Immuno-module strips MAXISORP (Nunc, Danyel Biotech, Israel) were coated with 50 μl/well of 2 μg/ml human αvβ3 integrin (Chemicon, USA) overnight and blocked with 2% BSA (Sigma, Israel) for 2 hrs at RT. After wash with Tris buffered saline-Tween (TBST) buffer, a mixture of RGD peptide c[RGDfK]-biotin (10^−3M) and the tested RGD-conjugate at different concentrations (10^−2, 10^−3, 10^−4 and 10^−5 M) was added in triplicates and was incubated overnight and shaken at RT. After wash with PBS buffer, anti-biotin antibodies labeled by alkaline phosphatase (1:200) (Miltenyi Biotec, Germany) were added and incubated for 1 hr at RT. The samples were incubated with p-NPP substrate and read at 405 nm on Multiscan Spectrum (Labotal, Israel). The data were plotted to graph of dependence of binding percent out of concentration of RGD-conjugate and IC50 value was determined. […]

[4] = system: LNCaP prostate cancer cells; experiment: In-vivo prostate cancer model, IVIS imaging; settings: for Fluorescent level in excised organs: 14 hrs after injection, prostate and ovarian tumor-bearing mice; for Time of highest fluorescent level in tumor after injection: LNCaP prostate tumor
[5] = system: LNCaP prostate cancer cells; settings: mouse, in vivo

SMILES | Survival, behavior and motility (Toxicity study on rats) | Necrosis or inflammation in liver or kidneys (Toxicity study on rats) | Time of highest fluorescent level in tumor after injection [1] | Time the conjugate stayed in the tumor [1] | Integrin binding assay (in vitro) [2] | Localization of conjugate within breast tumor [3] | IC50 (human αvβ3 integrin) | Fluorescent level in excised organs [4] | Time of highest fluorescent level in tumor after injection [4] | Time of highest fluorescent level in tumor after injection [5]
CCC1c2cc3[nH]c(c(CC(=O)OC)c4nc(cc5[nH]c(cc(n2)C1C)c(C(C)=O)c5C)C(C)C4CCC(=O)N[C@H]1CNC(=O)[C@H](CC(=O)O)NC(=O)CNC(=O)[C@H](CCCNC(=N)N)NC(=O)NCCNC1=O)c(C(=O)NCCS(=O)(=O)O)c3C (some centres unmarked) [Conjugate 1] | Animals were survived and did not show any behavior or motility problems | no evidence of necrosis or inflammation was found in the liver or the kidneys | 8 to 11 h | up to 48 hrs | Binding | Accumulate in the Necrotic Core of MDA Necrotic Tumors | 100 µM | high fluorescent level observed in the liver and kidney | 8 to 11 h | –
CCC1c2cc3[nH]c(c(CC(=O)OC)c4nc(cc5[nH]c(cc(n2)C1C)c(C(C)=O)c5C)C(C)C4CCC(=O)N[C@H]1CCCNC(=O)[C@H](CC(=O)O)NC(=O)CNC(=O)[C@H](CCCNC(=N)N)NC(=O)NCCNC1=O)c(C(=O)NCCS(=O)(=O)O)c3C (some centres unmarked) [Conjugate 4] | Animals were survived and did not show any behavior or motility problems | no evidence of necrosis or inflammation was found in the liver or the kidneys | 8 to 14 h | up to 48 hrs | Binding | Accumulate in the Necrotic Core of MDA Necrotic Tumors | 300 µM | high fluorescent level observed in the liver and kidney | 8 to 14 h | –
CCC1c2cc3[nH]c(c(CC(=O)OC)c4nc(cc5[nH]c(cc(n2)C1C)c(C(C)=O)c5C)C(C)C4CCC(=O)NCCCC[C@@H]1NC(=O)N[C@@H](Cc2ccccc2)C(=O)NC[C@@H](C(N)=O)NC(=O)[C@H](CC(=O)O)NC(=O)CNC(=O)[C@H](CCCNC(=N)N)NC1=O)c(C(=O)NCCS(=O)(=O)O)c3C (some centres unmarked) [Conjugate 41] | Animals were survived and did not show any behavior or motility problems | no evidence of necrosis or inflammation was found in the liver or the kidneys | 8 to 12 h | ≤ 24 h | In vitro: binding | Accumulate in the Necrotic Core of MDA Necrotic Tumors | 100 µM | – | – | 8 to 12 h
